The values below come from US20250042997A1 (PHYLAXIS BIOSCIENCE, published 2025).

For orientation: EC50 (read off the curve) means the concentration giving half of the maximal effect.

The target in test [1] is T1, human Siglec-8 (full-length, on transfected CHO or 293 cells, or native on human eosinophils) (human, UniProt Q9NYZ4 17-499). In words: flow cytometry on human eosinophils (CD16- CCR3+) from whole blood; anti-human AF647 secondary; MFI. The source says: To determine if increasing the valency of Siglec-8 antibodies could enhance agonist activity, the parental llama B12, D1 and E2 VHH sequences were used to generate tetravalent (Tet-B12 (cx8467; SEQ ID NO:50 linked to an Fe), Tet-D1 (cx8469; SEQ ID NO:56 linked to an Fe), and Tet-E2 (cx8463; SEQ ID NO:62 linked to an Fc)) and hexavalent (Hex-B12 (cx8466; SEQ ID NO:51 linked to an Fe), Hex-D1 (cx8523; SEQ ID NO:57 linked to an Fe), and Hex-E2 (cx8522; SEQ ID NO:165 linked to an Fc)), Siglec8-VHH-Fc antibodies linked to a reduced effector function xELL human Fc region via linker 2. The bivalent (Bi-B12 (cx8982), Bi-D1 (cx8983) and Bi-E2 (cx8984)), tetravalent, and hexavalent Siglec8-VHH-Fc antibodies were assessed by flow cytometry for binding to eosinophils (CD16⁻ CCR3⁺). Cells were isolated from whole blood by centrifugation, washed twice with 2% FBS PBS, and resuspended in 1×RBC lysis buffer for 10 minutes at room temperature (RT), washed once in 2% FBS PBS and treated with a second RBC lysis step and washed twice with 2% FBS. Cells were seeded at 200 k/well and resuspended in Human FC block for 10 minutes at RT. Cells were spun down and then resuspended in titrated test articles starting at 200 nM 1:4 and incubated for 30 minutes at 4° C. before being washed twice and resuspended in secondary mixture (2*; anti-CCR3 FITC, anti-human AF647, PI, anti-CD16 BV605) and incubated for 30 minutes at 4° C., washed twice, and bound antibodies were detected via flow cytometry (Novocyte).
As shown in FIG. 2A-2C, bivalent, tetravalent, and hexavalent Siglec8-VHH-Fc antibodies B12 (FIG. 2A), D1 (FIG. 2B) and E2 (FIG. 2C) bound to eosinophils. The calculated affinity was similar between the bivalent, tetravalent, and hexavalent hzSiglec8-VHH-Fc antibodies. The observed Bmax was reduced with increasing valency as anticipated, due the fact that the Fc portion of the antibody was detected in this assay and the ratio of Fc regions to anti-Siglec-8 binding domains is inverse to valency. No binding was observed on other granulocyte populations (CD16⁺ CCR3⁻).
A general note: Flow cytometry measures light scatter and fluorescence of single cells or particles in a stream.

For test [2], the target named is T1, human Siglec-8 (full-length, on …). The test can be described thus: flow cytometry, CHO cells transiently transfected with full-length human Siglec-8 (apparent affinity). Here is the method:
(§1) Binding of the anti-human Siglec-8 VHHs, B12, D1, E2, and G2, as a bivalent VHH-hIgG1-xELL-Fc (VHH of SEQ ID NO: 49, 55, 61, and 1, respectively linked to an Fe xELL via linker 2, these constructs are also designated cx8982, cx8983, cx8984, and cx10382, respectively) was determined by flow cytometry using CHO cells that had been transiently transfected with full-length human Siglec-8. Binding specificity was assessed using untransfected (UT) CHO cells as a control. For the binding assays, 50,000 Siglec-8 CHOs or UT CHOs were seeded in a 96-well plate and a titration of anti-Siglec8-VHH-xELL was added in FACS Buffer (PBS 1% BSA, 0.1% NaN3 pH 7.4) incubating for 30 minutes at 4° C. After washing, the plates were incubated with an A647-conjugated anti-human Fcγ specific secondary antibody (Jackson ImmunoResearch) diluted 1:2000 in FACS buffer for 30 minutes at 4° C. The plates were washed, and binding was determined by flow cytometry quantitating anti-human A647 mean fluorescent intensity using an Intellicyt iQue Plus.
(§2) The binding was specific to Siglec-8 as there was no detectable binding to untransfected CHO cells for any of the tested constructs.

The target is the same in test [3]. The test can be described thus: flow cytometry on CHO cells transiently transfected with full-length human Siglec-8; A647 anti-human Fc-gamma secondary; Mean RL1-H. Here is the method:
as §1, §2

Test [4] shares this target. The test can be described thus: flow cytometry on 293 cells transiently transfected with full-length human Siglec-8; A647 anti-human Fc-gamma secondary; median fluorescence, nonlinear fit; table under the graph. How it is done:
(§3) The binding of the lmG2 and humanized versions (further including Siglec8 hzG2v14), formatted as monomeric VHH-hIgG1 fusions proteins using a non-dimerizing human IgG1 Fe variant region lacking a hinge Fe NNT, was assessed by flow cytometry using 293 cells that had been transiently transfected with full-length human Siglec-8 and detected with an anti-human AF647 secondary antibody. Binding specificity was assessed using untransfected 293 cells as a control. For the binding assays, Siglec-8 293 cells or untransformed 293 cells were seeded in a 96 well U-bottom plate with 50 k cells/well in FACS buffer and incubated at 4° C. with a titration of anti-Siglec8-VHH-NNT for 30 minutes. After washing, the plates were incubated with an A647-conjugated anti-human Fcγ specific secondary antibody diluted 1:10,000 in FACS buffer for 20 minutes at 4° C. The plates were washed, and binding was determined by flow cytometry quantitating anti-human A647 median fluorescent intensity. The maximum specific binding (Bmax) and affinity (Kd) for was determined from the flow cytometry binding data using a nonlinear fit model.

The target is the same in test [5]. The test can be described thus: flow cytometry on 293 cells transiently transfected with full-length human Siglec-8; A647 anti-human Fc-gamma secondary; median fluorescence, nonlinear fit; table under the graph (Kd column without unit, concentration axis nM Ab). Here is the method:
as §3

Test [6] shares this target. Described as above. How it is done: as §3
The source holds these as a separate data set.

T1 sequence (Q9NYZ4 17-499): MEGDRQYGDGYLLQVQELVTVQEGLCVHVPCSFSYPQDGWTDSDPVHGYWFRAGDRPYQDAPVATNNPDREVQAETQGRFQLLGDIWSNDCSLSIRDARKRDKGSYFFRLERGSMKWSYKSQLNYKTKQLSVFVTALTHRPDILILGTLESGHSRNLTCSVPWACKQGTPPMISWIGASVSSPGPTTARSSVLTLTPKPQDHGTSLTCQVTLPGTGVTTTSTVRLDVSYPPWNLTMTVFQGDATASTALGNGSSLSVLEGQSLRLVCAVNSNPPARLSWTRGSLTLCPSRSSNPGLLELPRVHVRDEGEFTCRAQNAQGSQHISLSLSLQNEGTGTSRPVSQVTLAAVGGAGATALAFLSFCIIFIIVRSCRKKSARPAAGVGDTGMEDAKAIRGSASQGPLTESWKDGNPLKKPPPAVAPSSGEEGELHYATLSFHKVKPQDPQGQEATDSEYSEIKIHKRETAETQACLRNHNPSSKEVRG

B1: Hex-E2, hexavalent Siglec8-VHH-Fc (xELL) (Fc fusion)
chain: QVQLVESGGGLVQPGGSLRLSCATSGIIFTSNVINWYRQAPGKQREFVAFITSITSGQSTMYADAVKGRFTVSRDNDKNIGYLQMTSLQPEDTARYVCNVGAYWGQGTQVTVKPGGSGGSQVQLVESGGGLVQPGGSLRLSCATSGIIFTSNVINWYRQAPGKQREFVAFITSITSGQSTMYADAVKGRFTVSRDNDKNIGYLQMTSLQPEDTARYVCNVGAYWGQGTQVTVKPGGSGGSQVQLVESGGGLVQPGGSLRLSCATSGIIFTSNVINWYRQAPGKQREFVAFITSITSGQSTMYADAVKGRFTVSRDNDKNIGYLQMTSLQPEDTARYVCNVGAYWGQGTQVTVKPGGGGDKTHTCPPCPAPGGPSVFLFPPKPKDTLMISRTPEVTCVVVDVSHEDPEVKFNWYVDGVEVHNAKTKPREEQYNSTYRVVSVLTVLHQDWLNGKEYKCKVSNKALPAPIEKTISKAKGQPREPQVYTLPPSRDELTKNQVSLTCLVKGFYPSDIAVEWESNGQPENNYKTTPPVLDSDGSFFLYSKLTVDKSRWQQGNVFSCSVMHEALHNHYTQKSLSLSPGK
notes: Homodimer through the Fc; also called cx8522
Consider B1, for which the binding result in test [1] is reported as “binds”.

B2: anti-Siglec8-G2-xELL, bivalent VHH-hIgG1-xELL-Fc (Fc fusion)
chain: QVTLKESGGGLVRTGGSLRLSCAASGSISIFSMYVVAWYRQAPGKQREWVAFIQRGGTANYADSAKGRFTISRDNAKNTVYLQMASLKPDDTAVYYCNYINSDNEIGGPWGQGTQVTVKPGGGGDKTHTCPPCPAPGGPSVFLFPPKPKDTLMISRTPEVTCVVVDVSHEDPEVKFNWYVDGVEVHNAKTKPREEQYNSTYRVVSVLTVLHQDWLNGKEYKCKVSNKALPAPIEKTISKAKGQPREPQVYTLPPSRDELTKNQVSLTCLVKGFYPSDIAVEWESNGQPENNYKTTPPVLDSDGSFFLYSKLTVDKSRWQQGNVFSCSVMHEALHNHYTQKSLSLSPGK
notes: Homodimer through the Fc; also called cx10382
In the case of B2, the Kd in test [2] is 0.268 nM. For the same molecule, in test [3], the “EC50 (read off the curve)” value is roughly 0.3 nM.

B3: Siglec8 hzG2v17, monomeric VHH-hIgG1 fusion (Fc NNT) (Fc fusion)
chain: EVQLLESGGGEVQPGGSLRLSCAASGSISIFSIYVVAWYRQAPGKEREWVAFIQRGGTANYAESAKGRFTISRDNAKNTVYLQMSSLRAEDTAVYYCNYINSDNEIGGPWGQGTLVTVKP
notes: Monomeric format; not shown: non-dimerizing human IgG1 Fc variant lacking a hinge (Fc NNT)
On to B3, for which the Bmax in test [4] is 1.17e+06 Median (anti-human A647). Also, in test [5], the Kd was found to be 0.145 nM.

B4: Siglec8 hzG2v29, monomeric VHH-hIgG1 fusion (Fc NNT) (Fc fusion)
chain: EVQLLESGGGEVRPGGSLRLSCAASGSISIFSMYVVAWYRQAPGKQREWVAFIQRGGTANYAESAKGRFTISRDNAKNTVYLQMSSLRAEDTAVYYCNYINSDNEIGGPWGQGTLVTVKP
notes: as for B3
B4 returned a Kd in test [6] of 0.111 nM.

B5: Siglec8 hzG2v30, monomeric VHH-hIgG1 fusion (Fc NNT) (Fc fusion)
chain: EVQLLESGGGLVRTGGSLRLSCAASGSISIFSMYVVAWYRQAPGKQREWVAFIQRGGTANYAESAKGRFTISRDNAKNTVYLQMSSLRAEDTAVYYCNYINSDNEIGGPWGQGTLVTVKP
notes: as for B3
With B5, in test [6], the Kd was 0.124 nM.

B6: Siglec8 hzG2v25, monomeric VHH-hIgG1 fusion (Fc NNT) (Fc fusion)
chain: EVQLLESGGGLVQTGGSLRLSCAASGSISIFSMYVVAWYRQAPGKQREWVAFIQRGGTANYAESAKGRFTISRDNAKNTVYLQMSSLRAEDTAVYYCNYINSDNEIGGPWGQGTLVTVKP
notes: as for B3
In test [5], B6 returned a Kd of 0.0912 nM.

B7: Siglec8 hzG2v26, monomeric VHH-hIgG1 fusion (Fc NNT) (Fc fusion)
chain: EVQLLESGGGLVRPGGSLRLSCAASGSISIFSMYVVAWYRQAPGKQREWVAFIQRGGTANYAESAKGRFTISRDNAKNTVYLQMSSLRAEDTAVYYCNYINSDNEIGGPWGQGTLVTVKP
notes: as for B3
As for B7, the Kd in test [5] was 0.151 nM.

B8: Siglec8 hzG2v28, monomeric VHH-hIgG1 fusion (Fc NNT) (Fc fusion)
chain: EVQLLESGGGEVQTGGSLRLSCAASGSISIFSMYVVAWYRQAPGKQREWVAFIQRGGTANYAESAKGRFTISRDNAKNTVYLQMSSLRAEDTAVYYCNYINSDNEIGGPWGQGTLVTVKP
notes: as for B3
In test [6], B8 yielded a Kd of 0.0966 nM.

B9: Siglec8 hzG2v18, monomeric VHH-hIgG1 fusion (Fc NNT) (Fc fusion)
chain: EVQLLESGGGEVQPGGSLRLSCAASGSISIFSKYVVAWYRQAPGKEREWVAFIQRGGTANYAESAKGRFTISRDNAKNTVYLQMSSLRAEDTAVYYCNYINSDNEIGGPWGQGTLVTVKP
notes: as for B3
B9: the Bmax in test [4] is 1.05e+06 Median (anti-human A647). Further, the Kd in test [5] was 0.263 nM.

B10: hzG2v19 (Fc fusion)
VHH: EVQLLESGGGEVQPGGSLRLSCAASGSISIFSSYAVAWYRQAPGKEREWVAFIQRGGTANYAESAKGRFTISRDNAKNTVYLQMSSLRAEDTAVYYCNYINSDNEIGGPWGQGTLVTVKP
notes: also called Siglec8 hzG2v19; monomeric VHH-hIgG1 fusion (Fc NNT); not shown: The non-dimerizing, hinge-less human IgG1 Fc variant (Fc NNT) and any linker to it
As for B10, the Bmax in test [4] is 1.24e+06 Median (anti-human A647). Moreover, in test [5], the Kd amounted to 41.9 nM.

B11: hzG2v21 (Fc fusion)
VHH: EVQLLESGGGEVQPGGSLRLSCAASGSISIFSSYAMSWYRQAPGKEREWVAFIQRGGTANYAESAKGRFTISRDNAKNTVYLQMSSLRAEDTAVYYCNYINSDNEIGGPWGQGTLVTVKP
notes: also called Siglec8 hzG2v21; monomeric VHH-hIgG1 fusion (Fc NNT); not shown: The non-dimerizing, hinge-less human IgG1 Fc variant (Fc NNT) and any linker to it
Regarding B11, in test [4], the Bmax was 1.1e+06 Median (anti-human A647). This molecule came in with a Kd in test [5] of 256 nM.

B12: Tet-E2, tetravalent Siglec8-VHH-Fc (xELL) (Fc fusion)
chain: QVQLVESGGGLVQPGGSLRLSCATSGIIFTSNVINWYRQAPGKQREFVAFITSITSGQSTMYADAVKGRFTVSRDNDKNIGYLQMTSLQPEDTARYVCNVGAYWGQGTQVTVKPGGSGGSQVQLVESGGGLVQPGGSLRLSCATSGIIFTSNVINWYRQAPGKQREFVAFITSITSGQSTMYADAVKGRFTVSRDNDKNIGYLQMTSLQPEDTARYVCNVGAYWGQGTQVTVKPGGGGDKTHTCPPCPAPGGPSVFLFPPKPKDTLMISRTPEVTCVVVDVSHEDPEVKFNWYVDGVEVHNAKTKPREEQYNSTYRVVSVLTVLHQDWLNGKEYKCKVSNKALPAPIEKTISKAKGQPREPQVYTLPPSRDELTKNQVSLTCLVKGFYPSDIAVEWESNGQPENNYKTTPPVLDSDGSFFLYSKLTVDKSRWQQGNVFSCSVMHEALHNHYTQKSLSLSPGK
notes: Homodimer through the Fc; also called cx8463
B12: the binding result in test [1] is “binds”.
